Experiments:
[1] = Washing test in Linitest with European-formulation detergent (Example 20); conditions: analogous to Example 19
Protocol: The washing tests were carried out in a Linitest with EMPA 117 (11 cm×11 cm; polyester/cotton blended fabric, soiled with milk, blood and permanent ink) as the test fabric (purchased from the Eidgenoessische Material pruefungsanstalt, Sankt Gallen, Switzerland)- Washing was carried out with 6 g/l IEC test detergent with perborate, type 1 (Lever Sunlicht GmbH, Mannheim; composition: 6.4% by weight linear alkylsulfonates, 2.3% by weight ethoxylated fatty alcohols with 14% ethoxy groups, 2.8% by weight sodium soap, 35% by weight sodium tripolyphosphate, 6% by weight sodium silicate, 1.5% by weight magnesium silicate, 1% by weight carboxy/methylcellulose, 0.2% by weight ethylenediaminetetraacetic acid (EDTA), 0.2% by weight optical brightener (stilbene type), 16.8% by weight sodium sulfate, and 7.8% by weight water as a spray-dried powder without bleach activator plus 20% by weight sodium perborate tetrahydrate) in water having a hardness of 15° on the German hardness scale. The pH of the wash liquor was pH 10.5. The washing time was 30 minutes at 45° C., and in each case 20 U of protease (prepared as described in Example 18) were employed per 100 ml. After the washing process was complete, the pieces of fabric were rinsed three times with tap water, dried and subsequently ironed. The reflection of the pieces of test cloth was determined four times on each side. […]

[2] = Washing test in Linitest with IEC test detergent with perborate (Example 19); conditions: pH 10.5, 30 minutes at 45° C.
Protocol: The washing tests were carried out in a Linitest with EMPA 117 (11 cm×11 cm; polyester/cotton blended fabric, soiled with milk, blood and permanent ink) as the test fabric (purchased from the Eidgenoessische Material pruefungsanstalt, Sankt Gallen, Switzerland)- Washing was carried out with 6 g/l IEC test detergent with perborate, type 1 (Lever Sunlicht GmbH, Mannheim; composition: 6.4% by weight linear alkylsulfonates, 2.3% by weight ethoxylated fatty alcohols with 14% ethoxy groups, 2.8% by weight sodium soap, 35% by weight sodium tripolyphosphate, 6% by weight sodium silicate, 1.5% by weight magnesium silicate, 1% by weight carboxy/methylcellulose, 0.2% by weight ethylenediaminetetraacetic acid (EDTA), 0.2% by weight optical brightener (stilbene type), 16.8% by weight sodium sulfate, and 7.8% by weight water as a spray-dried powder without bleach activator plus 20% by weight sodium perborate tetrahydrate) in water having a hardness of 15° on the German hardness scale. The pH of the wash liquor was pH 10.5. The washing time was 30 minutes at 45° C., and in each case 20 U of protease (prepared as described in Example 18) were employed per 100 ml. After the washing process was complete, the pieces of fabric were rinsed three times with tap water, dried and subsequently ironed. The reflection of the pieces of test cloth was determined four times on each side.

B1: Initial protease: non-mutated highly alkaline protease from Bacillus alcalophilus HA1 (DSM 5466), amino-acid sequence of FIG. 1 (SEQ. ID. NO. 2) (protein)
chain: MKKPLGKIVASTALLISVAFSSSIASAAEEAKEKYLIGFNEQEAVSEFVEQVEANDEVAILSEEEEVEIELLHEFETIPVLSVELSPEDVDALELDPAISYIEEDAEVTTMAQSVPWGISRVQAPAAHNRGLTGSGVKVAVLDTGISTHPDLNIRGGASFVPGEPSTQDGNGHGTHVAGTIAALNNSIGVLGVAPSAELYAVKVLGASGSGSVSSIAQGLEWAGNNGMHVANLSLGSPSPSATLEQAVNSATSRGVLVVAASGNSGAGSISYPARYANAMAVGATDQNNNRASFSQYGAGLDIVAPGVNVQSTYPGSTYASLNGTSMATPHVAGAAALVKQKNPSWSNV
[1]; detergent in a formulation suitable for Europe (anionic and non-ionic surfactant, sodium tripolyphosphate, sodium perborate)
  Reflection: 65.6%
[1]; relative to initial protease = 100%, detergent in a formulation suitable for Europe
  Relative Reflection: 100%
[2]; 6 g/l IEC test detergent with perborate, type 1, 20 U of protease per 100 ml, averages of 16 washing tests
  Reflection: 71.1%
[2]; relative to initial protease = 100%, IEC test detergent with perborate, 20 U protease per 100 ml
  Relative Reflection: 100%

Source: patent US5352603A, “Highly alkaline proteases” (Kali-Chemie AG, priority 1989, dated 1994)
